Assay results as given in patent US20250340646A1 (ELPIS BIOPHARMACEUTICALS, published 2025).
Like-named read-outs stand apart in the source and are kept apart here.

What was measured:
[1] = target: T1, full-length human PD-L1 on K562 cells (human, UniProt Q9NZQ7 19-290); assay: FACS, PD-L1/K562 cells
T1 construct: also called PD-L1/K562; cell surface human PD-L1
Method: (§1) Cells were spun down at 1200 rpm for 5 minutes at 4° C. to remove primary antibodies. Cells were then washed once with 200 μL of full medium per well. […] Samples were spun down at 1200 rpm for 5 minutes at 4° C. and washed twice with 200 μL of 1×PBS per well. Samples were reconstituted in 200 μL of 1×PBS and were read on Attune NxT cytometer.

human PD-L1-Fc [2] = target: T2, human PD-L1-Fc (human, UniProt Q9NZQ7 19-238); assay: ELISA, coated PD-L1-Fc, anti-FLAG HRP
T2 construct: also called recombinant PD-L1-Fc fusion protein
Method: (§2) The plate was incubated overnight at 4° C. followed by blocking with 80 μL of superblock per well for 1 hour. […] In between each step, the plate was washed 3 times with 1×PBST in a plate washer. The plate was then developed with 20 μL of TMB substrate for 5 min and stopped by adding 20 μL of 2N sulfuric acid. The plate was read at OD450 nm Biotek plate reader and then plotted in Prism 8.1 software.

[3] = target: T3, PD-L1 biotinylated (PD-1/PD-L1 TR-FRET assay kit, BPS 72038) (Homo sapiens (Human), UniProt Q9NZQ7 19-238, biotinylated; site not stated); assay: HTRF competition, competitor PD-1-Eu
T3 construct: Kit reagent
Method: (§3) Briefly, 1× Immuno buffer 1 was made. […] For each well in 384-well plate, serial diluted scFvs and regents were added according to manufacturer's recommended volume. Samples were incubated at room temperature for 1.5 hours then the fluorescent intensity was read with Biotek Neo2 plate reader using manufacture's instrument setting for the assay.

[4] = target: PD-L1 on PD-L1 aAPC/CHOK1 cells (Promega J1250); assay: cell-based or functional assay
human PD-L1-Fc [5] = target: T2, human PD-L1-Fc; assay: ELISA, coated PD-L1-Fc, anti-FLAG HRP; remark: listed apart in the source
Method: as §2
(§4) The production, the binding, and all of the characterization assays for selected affinity matured scFv clones were performed as described above.

[6] = target: T1, full-length human PD-L1 on K562 cells; assay: FACS, PD-L1/K562 cells; remark: listed apart in the source
Method: as §1, §4

[7] = target: PD-L1 on PD-L1 aAPC/CHOK1 cells (Promega J1250); assay: cell-based or functional assay; remark: listed apart in the source
[8] = target: T3, PD-L1 biotinylated (PD-1/PD-L1 TR-FRET …); assay: HTRF PD-1/PD-L1 competition (PD-1-Eu and biotinylated PD-L1), % activity; blocked ligand PD-1-Eu
Method: as §3, §4

human PD-L1-Fc [9] = target: T2, human PD-L1-Fc; assay: SPR, PD-L1-Fc captured, scFv analyte
Method: The assay was run with Biacore T200 control software version 2.0. Anti-human Fc antibody was immobilized on flow cell 1 and 2 of CM5 sensor chip. […] The flow cells were then regenerated with antibody regeneration buffer (GE Healthcare) for 30 seconds at flow rate of 30 μl/min.
as §4

[10] = target: T4, human PD-L1-HIS tagged recombinant protein (human, UniProt Q9NZQ7 19-238); assay: SPR, IgG on Protein A, PD-L1-HIS analyte
T4 construct: also called hPD-L1-HIS; PD-L1 HIS tagged protein
Method: The assay was run with Biacore T200 control software version 2.0. For each cycle, 1 μg/mL of anti-hPD-L1-IgG was captured for 60 seconds at flow rate of 10 μl/min on flow cell 2 in 1×HBSP buffer on Protein A sensor chip. […] The flow cells were then regenerated with Glycine pH 2 for 60 seconds at flow rate of 30 μl/min. […] The specific binding response unit was derived from subtraction of binding to reference flow cell 1 from antibody captured flow cell 2.

B1: 2018EP280-E01 scFv (scFv, V domains shown)
VH: EVQLVESGGGLVKPGGSLRLSCAASGLTFSNAWMSWVRQAPGKGLEWVGRIKSKTDGGTTEYAAPVKGRFTISRDDSKNTLYLQMSSLKTEDTAVYYCTIVYYYDSSGPVFFQHWGQGTLVTVSS
VL: QSVLTQPPSASATPGQRVTISCSGSDSNIATNYVYWYQQFPGTAPKLLIYRNHQRPSGVPDRFSGSRSGTSASLAISGLRSEDEADYYCATWDDSVNSWVFGGGTKLTVL
notes: not shown: scFv linker and domain order of the library scFv
EC50 [1]: 10.8 nM | EC50 (human PD-L1-Fc [2]): 8.1 nM | IC50 [3]: 76.8 nM | Jurkat NFAT reporter assay EC50 [4]: 400 nM

B2: 2019EP69-F03 scFv (scFv, not shown: small tags and cut ends)
scFv: QVQLVQSGAEVKKPGSSVKVSCKASGGTFSSYAISWVRQAPGQGLEWMGGIIPIFGTANYAQKFQGRVTITADESTSTAYMELSSLRSEDTAVYYCARDKWYGSAWRGDYWGQGTLVTVSSGGGGSGGGGSGGGGSQSVLTQPPSASGTPGQRVTISCSGSYSNIGSNFVNWYQQLPGTAPKLLIHFNNQRPSGVPDRFSGSRSGTSASLAISGLQSEDEADYFCSTWDDSLKGPIFGGGTKLTVL
EC50 (human PD-L1-Fc [5]): 0.696 nM | EC50 [6]: 0.115 nM | Jurkat NFAT reporter assay EC50 [7]: 123 nM | IC50 (read off the curve) [8]: ~100 nM | Kd (human PD-L1-Fc [9]): 0.0797 nM | koff (human PD-L1-Fc [9]): 9.87e-05 s⁻¹ | kon (human PD-L1-Fc [9]): 1.24e+06 M⁻¹ s⁻¹

B3: 2018EP161-G08 scFv (scFv, V domains shown)
VH: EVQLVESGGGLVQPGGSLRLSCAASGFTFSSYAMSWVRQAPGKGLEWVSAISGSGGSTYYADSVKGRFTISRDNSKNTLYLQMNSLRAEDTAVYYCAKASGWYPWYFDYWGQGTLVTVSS
VL: VIWMTQSPSSLSASLGDRVTITCRASQSVSTYINWYQQKSGKGPKLLIFNASTLQSGVPSRFSGSGSGTDFTLTITSLQPDDSATYYCQQSYRVPLSFGGGTKVEIR
EC50 (human PD-L1-Fc [2]): 1.16 nM

B4: 2018EP280-E04 scFv (scFv, V domains shown)
VH: QVQLQQWGAGLLKPSETLSLTCAVYGGSFSGYYWSWIRQPPGKGLEWIGEINHIGSTNYNPSLKSRVTISVDTSNNQFSLKLSSVTAADTAVYYCARGRRLRYFDWAAYNWFDPWGQGTLVTVSS
VL: QSALTQDPAVSVALGQTVRISCQGDSLRSHYASWYQQKPGQAPVVVVYDNSDRPSGIPDRFSGSNSGNTATLTISRVEVGDEADYYCQVWDSSSDHYVFGTGTKVTVL
notes: as for B1
EC50 [1]: 5.51 nM | IC50 [3]: 38.5 nM | Jurkat NFAT reporter assay EC50 [4]: 133 nM

B5: anti-PD-L1 IgG antibody 2018EP280-E04 (printed construct pair EP486/EP489) (antibody, V domains shown)
VH: QVQLQQWGAGLLKPSETLSLTCAVYGGSFSGYYWSWIRQPPGKGLEWIGEINHIGSTNYNPSLKSRVTISVDTSNNQFSLKLSSVTAADTAVYYCARGRRLRYFDWAAYNWFDPWGQGTLVTVSS
VL: QSALTQDPAVSVALGQTVRISCQGDSLRSHYASWYQQKPGQAPVVVVYDNSDRPSGIPDRFSGSNSGNTATLTISRVEVGDEADYYCQVWDSSSDHYVFGTGTKVTVLG
Kd [10]: 2.76 nM

B6: anti-PD-L1 IgG antibody EP480/EP481 (2018EP164-F04) (antibody, V domains shown)
VH: QVQLQQWGAGLLKPSETLSLTCAVYGGSFSGYYWSWIRQPPGKGLEWIGEINHSGSTNYNPSLKSRVTISVDTSKNQFSLKLSSVTAADTAVYYCARGRRLRYFDWAAYNWFDPWGQGTLVTVSS
VL: QSALTQDPAVSVALGQTVRITCQGDSLRSHYASWYQQKPGQAPVVVVYDNSDRPSGIPDRFSGSNSGNTATLTISRVEVGDEADYYCQVWDSSSDHYVFGTGTKVEIRT
Kd [10]: 5.73 nM

B7: anti-PD-L1 IgG antibody EP488/EP489 (2018EP171-H02) (antibody, V domains shown)
VH: QVQLVQSGAEVKKPGSSVKVSCKASGGTFSSYAISWVRQAPGQGLEWMGGIIPIFGTANYAQKFQGRVTITADESTSTAYMELSSLRSEDTAVYYCARDKGYGSGWRGDYWGQGTLVTVSS
VL: QSVLTQPPSASGTPGQRVTISCSGSYSNIGSNFVNWYQQLPGTAPKLLIHFNNQRPSGVPDRFSGSRSGTSASLAISGLQSEDEADYFCSTWDDSLKGPIFGGGTKLTVLG
Kd [10]: 9.5 nM

B8: 2018EP170-E06 scFv (scFv, V domains shown)
VH: EVQLVQSGAEVKKPGSSVKVSCKASGGTFSSYAISWVRQAPGQGLEWMGGIIPIFGTANYAQKFQGRVTITADESTSTAYMELSSLRSEDTAVYYCARDSRWGPAPHAFDIWGQGTMVTVSS
VL: QQSVLTQPASVSGSPGQSITISCTGTSSDIGSYNLVSWYQNHPGKAPKLILYEITKRPSGVSSRFSGSKSGNAASLTISGLQAEDEAEYFCCSYAGLSVFFVFGGGTKL
EC50 [1]: 35.9 nM | EC50 (human PD-L1-Fc [2]): 158 nM
